assay: label from the status in PepcDB records

Protein production, failed:
MVTSSSMRRCRGALSLSFWIFLVLRSVLSRPVFGAAAGPAVQSARQCSASRGTGESDPPPFQPTLRLFPPSRRRRSYCRAMTPSRPSPDFPDGGFVQVRGARQHNLKDISVKVPRDALVVFTGVSGSGKSSLAFGTLYAEAQRRYLESVSPYARRLFNQAGVPDVDAIDGLPPAVALQQARGTPTARSSVGSVTTLSNLLRMLYSRAGDYPPGQGIVYAEGFSPNTPEGACPECHGLGRVYTVTEDSMVPDPSLTIRERAVAAWPQAWGGQNQRDILVTLGIDVDVPWRELPEETRHWILFTDEQPVVPVYPGLTPAETQRALKKKMEPSYMGTFSSARRHVLHTFANTESASMKKRVQGYMISEECPLCHGKRLRQEALNVTFAGLDITELSRLPLARVSELLRPYAEEREPGHAERVKNRPEQAIALQRMAADLVKRLDVLLHLGLGYLGLDRSTPTLSPGELQRLRLATQLYSNLFGVVYVLDEPSAGLHPADTEALLSALENLKRGGNSLFVVEHDLDVIRRADWLVDVGPEAGEKGGEILYSGPPEGLKHVPESQTGQYLFADRHTEPHTPREPAGWLELNGVTRNNLDNLDVRFPLGVMTSVTGVSGSGKSTLVSQALVDALAAHFGQPVNPDPEDDEDPADHTAGSARLGGDLAQITRLVRVDQKPIGRTPRSNMATYTGLFDQVRKLFAATPLAKKRGYNAGRFSFNVKGGRCEHCQGEGWVMVELLFLPSVYAPCPVCHGTRYNAETLEVEYRGKNIADVLALTVDEAHDFFADESAIFRALDTLREVGLGYLRLGQPATELSGGEAQRIKLATELQRSGRGGTVYVLDEPTTGLHPADVERLQRQLVKLVDAGNTVIAVEHKMQVVAASDWVLDIGPGAGEDGGRLVAQGTPAEVAQAAGSVTAPYLRAALR
MVTSTELTGQTAGVPDAGLVERALAYVREKADGEKPTTLPTGETVLSHAEGMLRILDGLRVDDAARAAACLFPMVAFVPGVEAHIEERFGEDVARLVKGVRQLLRIGAIATQAEAVETSKSQAAARQEQVEALRKMLLAFAQDIRVVLVRLASRLQTLRWLAQTKSQPLPGVARETLDIYAPLANRLGIWQMKWELEDLAFRFEQPETYKRIAKLLDEKRIEREGYISQAIARLQSELAAAGIRAEVTGRPKHIYSIWKKMRGKALDFADLYDVRAFRVIVDDIKDCYTVLGIVHHIWQPIPREFDDYISRPKANGYKSLHTVVIGDDGRAFEVQIRTHEMHHFAEYGVAAHWRYKEAGGKGYSGQFTADNSYDEKIAWLRQLLAWKDDADHTVTHEDSPWEQLKHAAIDDHIYVLTPQARVVALPQGATPVDFAYYLHSDLGHRCRGARVDGAMVPLNTPLKNGQTVEIVAVKQGGPSRDWLNPELGYLASSRARAKVRAWFNALDSQETIAQGRALIEKTLQREGKTAVNLDDLATRLNFKTPDDLFAAVAKEEFSLRHVEQALRHPDGEVQPQFSEEEAVTKKSRATSVARGAKSGVLVVGVDSLMTQMSRCCKPAPPDDIVGFVTRGRGVSIHRRNCHTFQQLSTRDPERVIQTEWGKRSDAVYPVDIQVEAIDRQGLLRDISEVLSREKINVTGVKTLSSKGVARMQFTAEVAEATQLQRAISLIEEVQGVLHAKRK
MVTSVSALAVAVVHSVAFAIGRRIGRYNVVDVVWGLGFVAVAVAAATLGHGDPVRRWLLLALVSTWGLRLSWHMYRKTAGQGEDPRYADLLRGATPVQALRKVFGLQGLLTLFVSFPLQLSAVTGPTPKPLLAVGGVGLAVWLVGITFEAVGDWQLWVFKSDPANRGVIMDRGLWAWTRHPNYFGDACVWWGLWLITINDWAPLATVGSPLLMTYLLVDVSGARLTERYLKGRPGFAEYQRRTAYFVPRPPRSARR
MVTVVVPAHNEDVVIAQTAKAILDMKYPRDKLEIILFADNCEDNTYQEMQSIKALPQYADRDLTLINRSGTGGKAGVLNDALKIAKGDYICVYDADAMPEKNALYFLVQKVMEDPERHVAAFGRNKTRNANQNFLTRCINQEIVVTQRIQHVGMWHLGKIGRIPGTNFIINTEFVKSIGGWRNGALTEDTDISFKIMQSGKLIALAYNSEAFQQEPETLKSYYLQRKRWAKGNYEVVIANFKHLFGRGNWRVKWEVFYYTCTFFWFNAAIVLSDILFFSNLIALIIGLFKPGVQVPFAFDANNIYMAQLLLFNWFLMILLYLLQISISQATQYGQATVKQIWIALLAYFTYTQLFIIVSISSVASVMMDKILHREGTKWVKTKRFAG

— a protein production outcome set (Wang et al. 2014)
